Experimental data published in patent publication US20250018014A1, “METHOD FOR TREATING AND/OR PREVENTING REGNASE-1-RELATED DISEASE” (OSAKA UNIVERSITY, priority 2018, published 2025).
Blank lines part the entries; values can stand above or below the binder they belong to. Positions of bridges follow the written chain, without caps; N, C: chain ends. Non-standard residues stand in square brackets, D forms with d. *: point of attachment. Pyrrolidide = C1CCN(*)C1; dNMeA = CN[C@H](C)C(=O)O

Columns and labels:
Test in all cases: cell-based or functional assay
[1] = biological target: T1, full-length human Regnase-1 with a FLAG tag on the N-terminal side and a biotin ligase BirA recognition … (human, UniProt Q5D1E8 1-599, biotinylated at the BirA recognition sequence when required)
T1 sequence: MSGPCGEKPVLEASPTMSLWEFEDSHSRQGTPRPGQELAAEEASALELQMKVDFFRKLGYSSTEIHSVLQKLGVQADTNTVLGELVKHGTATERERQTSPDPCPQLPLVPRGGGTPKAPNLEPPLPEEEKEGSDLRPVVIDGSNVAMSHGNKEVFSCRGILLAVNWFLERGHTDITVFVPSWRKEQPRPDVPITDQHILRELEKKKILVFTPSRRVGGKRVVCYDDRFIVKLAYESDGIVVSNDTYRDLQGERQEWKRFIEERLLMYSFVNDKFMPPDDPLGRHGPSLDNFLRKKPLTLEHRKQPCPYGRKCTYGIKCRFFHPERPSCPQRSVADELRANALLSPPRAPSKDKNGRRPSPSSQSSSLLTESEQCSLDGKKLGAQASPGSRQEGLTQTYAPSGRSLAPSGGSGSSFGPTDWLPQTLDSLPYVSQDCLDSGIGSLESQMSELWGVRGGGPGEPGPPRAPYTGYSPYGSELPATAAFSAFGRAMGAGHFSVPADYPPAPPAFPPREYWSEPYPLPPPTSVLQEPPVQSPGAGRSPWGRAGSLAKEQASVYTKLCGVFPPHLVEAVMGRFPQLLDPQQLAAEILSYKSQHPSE

[2] = biological target: T2, C-terminal domain-deleted human Regnase-1 (amino acids 1 to 546) with N-terminal FLAG tag and C-terminal BirA … (human, UniProt Q5D1E8 1-546)
T2 sequence: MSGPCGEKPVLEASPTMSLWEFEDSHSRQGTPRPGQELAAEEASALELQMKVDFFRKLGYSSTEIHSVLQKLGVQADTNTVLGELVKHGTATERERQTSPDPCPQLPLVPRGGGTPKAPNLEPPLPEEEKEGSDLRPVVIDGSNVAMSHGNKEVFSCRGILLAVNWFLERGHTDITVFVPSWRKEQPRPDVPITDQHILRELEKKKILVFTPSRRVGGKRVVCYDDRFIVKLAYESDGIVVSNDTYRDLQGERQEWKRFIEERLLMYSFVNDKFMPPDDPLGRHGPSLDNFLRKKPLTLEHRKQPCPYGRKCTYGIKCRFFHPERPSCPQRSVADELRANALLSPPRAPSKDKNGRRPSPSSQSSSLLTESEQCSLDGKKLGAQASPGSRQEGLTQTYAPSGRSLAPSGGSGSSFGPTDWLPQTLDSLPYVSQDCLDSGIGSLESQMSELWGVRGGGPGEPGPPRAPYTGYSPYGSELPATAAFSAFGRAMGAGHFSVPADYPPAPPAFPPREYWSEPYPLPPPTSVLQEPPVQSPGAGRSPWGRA

[3] = biological target: T3, C-terminal human Regnase-1 (amino acids 301 to 599) with N-terminal FLAG tag and C-terminal BirA recognition … (human, UniProt Q5D1E8 301-599)
T3 sequence: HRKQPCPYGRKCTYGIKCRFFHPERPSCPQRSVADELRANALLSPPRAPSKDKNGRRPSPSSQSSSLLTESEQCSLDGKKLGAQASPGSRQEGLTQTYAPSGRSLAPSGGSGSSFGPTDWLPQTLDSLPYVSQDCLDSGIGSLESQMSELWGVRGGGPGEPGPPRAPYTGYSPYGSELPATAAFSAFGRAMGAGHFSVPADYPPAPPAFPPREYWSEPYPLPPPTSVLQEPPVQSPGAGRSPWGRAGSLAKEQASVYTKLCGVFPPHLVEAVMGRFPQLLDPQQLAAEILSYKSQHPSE

[4] = biological target: T1, full-length human Regnase-1 with a FLAG …; remark: listed apart in the source
[5] = biological target: T2, C-terminal domain-deleted human …; remark: listed apart in the source
[6] = biological target: T3, C-terminal human Regnase-1 (amino acids …); remark: listed apart in the source

B3: PP7 (peptide)
peptide: XNFNSAYYRAIWD
HELM: PEPTIDE1{[meA].N.F.N.S.A.Y.Y.R.A.I.W.D.[C1CCN([*:1])C1]}$PEPTIDE1,PEPTIDE1,1:R1-13:R3$$$V2.0
SMILES: CC[C@H](C)[C@@H]1NC(=O)[C@H](C)NC(=O)[C@H](CCCNC(=N)N)NC(=O)[C@H](Cc2ccc(O)cc2)NC(=O)[C@H](Cc2ccc(O)cc2)NC(=O)[C@H](C)NC(=O)[C@H](CO)NC(=O)[C@H](CC(N)=O)NC(=O)[C@H](Cc2ccccc2)NC(=O)[C@H](CC(N)=O)NC(=O)[C@H](C)N(C)C(=O)C[C@@H](C(=O)N2CCCC2)NC(=O)[C@H](Cc2c[nH]c3ccccc23)NC1=O
50% inhibition concentration, Regnase-1 phosphorylation by TBK1 (AlphaScreen) [1]: 2.2 µM | 50% inhibition concentration, Regnase-1 phosphorylation by TBK1 (AlphaScreen) [2]: 4.7 µM | 50% inhibition concentration, Regnase-1 phosphorylation by TBK1 (AlphaScreen) [3]: 4.6 µM | 50% inhibition concentration, Regnase-1 phosphorylation by IKKβ (AlphaScreen) [4]: 0.8 µM | 50% inhibition concentration, Regnase-1 phosphorylation by IKKβ (AlphaScreen) [5]: 4.5 µM | 50% inhibition concentration, Regnase-1 phosphorylation by IKKβ (AlphaScreen) [6]: 3 µM

Binder: [dNMeA]TYGHSSWYKIWD-Pyrrolidide (lactam N-13) [PP9]
50% inhibition concentration, Regnase-1 phosphorylation by TBK1 (AlphaScreen) [1]: 4.2 µM | 50% inhibition concentration, Regnase-1 phosphorylation by TBK1 (AlphaScreen) [2]: 6.6 µM | 50% inhibition concentration, Regnase-1 phosphorylation by TBK1 (AlphaScreen) [3]: 7.9 µM | 50% inhibition concentration, Regnase-1 phosphorylation by IKKβ (AlphaScreen) [4]: 2.7 µM | 50% inhibition concentration, Regnase-1 phosphorylation by IKKβ (AlphaScreen) [5]: 6.4 µM | 50% inhibition concentration, Regnase-1 phosphorylation by IKKβ (AlphaScreen) [6]: 6.2 µM

B4: PP8 (peptide)
peptide: XSKYWNSWYNIWD
HELM: PEPTIDE1{[C[C@H](C(=O)[*:2])N(C)[*:1]].S.K.Y.W.N.S.W.Y.N.I.W.D.[C1CCN([*:1])C1]}$PEPTIDE1,PEPTIDE1,1:R1-13:R3$$$V2.0
SMILES: CC[C@H](C)[C@@H]1NC(=O)[C@H](CC(N)=O)NC(=O)[C@H](Cc2ccc(O)cc2)NC(=O)[C@H](Cc2c[nH]c3ccccc23)NC(=O)[C@H](CO)NC(=O)[C@H](CC(N)=O)NC(=O)[C@H](Cc2c[nH]c3ccccc23)NC(=O)[C@H](Cc2ccc(O)cc2)NC(=O)[C@H](CCCCN)NC(=O)[C@H](CO)NC(=O)[C@@H](C)N(C)C(=O)C[C@@H](C(=O)N2CCCC2)NC(=O)[C@H](Cc2c[nH]c3ccccc23)NC1=O
50% inhibition concentration, Regnase-1 phosphorylation by TBK1 (AlphaScreen) [1]: 2.9 µM | 50% inhibition concentration, Regnase-1 phosphorylation by TBK1 (AlphaScreen) [2]: 5.5 µM | 50% inhibition concentration, Regnase-1 phosphorylation by TBK1 (AlphaScreen) [3]: 6 µM | 50% inhibition concentration, Regnase-1 phosphorylation by IKKβ (AlphaScreen) [4]: 1.4 µM | 50% inhibition concentration, Regnase-1 phosphorylation by IKKβ (AlphaScreen) [5]: 7.8 µM | 50% inhibition concentration, Regnase-1 phosphorylation by IKKβ (AlphaScreen) [6]: 5.7 µM

B6: PP10 (peptide)
peptide: XNYQSWYYRSIWD
HELM: PEPTIDE1{[meA].N.Y.Q.S.W.Y.Y.R.S.I.W.D.[C1CCN([*:1])C1]}$PEPTIDE1,PEPTIDE1,1:R1-13:R3$$$V2.0
SMILES: CC[C@H](C)[C@@H]1NC(=O)[C@H](CO)NC(=O)[C@H](CCCNC(=N)N)NC(=O)[C@H](Cc2ccc(O)cc2)NC(=O)[C@H](Cc2ccc(O)cc2)NC(=O)[C@H](Cc2c[nH]c3ccccc23)NC(=O)[C@H](CO)NC(=O)[C@H](CCC(N)=O)NC(=O)[C@H](Cc2ccc(O)cc2)NC(=O)[C@H](CC(N)=O)NC(=O)[C@H](C)N(C)C(=O)C[C@@H](C(=O)N2CCCC2)NC(=O)[C@H](Cc2c[nH]c3ccccc23)NC1=O
50% inhibition concentration, Regnase-1 phosphorylation by TBK1 (AlphaScreen) [1]: 0.2 µM | 50% inhibition concentration, Regnase-1 phosphorylation by TBK1 (AlphaScreen) [2]: 0.2 µM | 50% inhibition concentration, Regnase-1 phosphorylation by TBK1 (AlphaScreen) [3]: 0.4 µM | 50% inhibition concentration, Regnase-1 phosphorylation by IKKβ (AlphaScreen) [4]: 0.5 µM | 50% inhibition concentration, Regnase-1 phosphorylation by IKKβ (AlphaScreen) [5]: 2.6 µM | 50% inhibition concentration, Regnase-1 phosphorylation by IKKβ (AlphaScreen) [6]: 1.8 µM

More lines, now with the values ahead:

50% inhibition concentration, Regnase-1 phosphorylation by TBK1 (AlphaScreen) [1]: 29.1 µM | 50% inhibition concentration, Regnase-1 phosphorylation by TBK1 (AlphaScreen) [2]: 55.6 µM | 50% inhibition concentration, Regnase-1 phosphorylation by TBK1 (AlphaScreen) [3]: > 62.1 µM | 50% inhibition concentration, Regnase-1 phosphorylation by IKKβ (AlphaScreen) [4]: 22.3 µM | 50% inhibition concentration, Regnase-1 phosphorylation by IKKβ (AlphaScreen) [5]: > 62.1 µM | 50% inhibition concentration, Regnase-1 phosphorylation by IKKβ (AlphaScreen) [6]: > 62.1 µM
B1: PP11 (peptide)
peptide: XKFAQFRWIYPD
HELM: PEPTIDE1{[meA].K.F.A.Q.F.R.W.I.Y.P.D.[C1CCN([*:1])C1]}$PEPTIDE1,PEPTIDE1,1:R1-12:R3$$$V2.0
SMILES: CC[C@H](C)[C@@H]1NC(=O)[C@H](Cc2c[nH]c3ccccc23)NC(=O)[C@H](CCCNC(=N)N)NC(=O)[C@H](Cc2ccccc2)NC(=O)[C@H](CCC(N)=O)NC(=O)[C@H](C)NC(=O)[C@H](Cc2ccccc2)NC(=O)[C@H](CCCCN)NC(=O)[C@H](C)N(C)C(=O)C[C@@H](C(=O)N2CCCC2)NC(=O)[C@@H]2CCCN2C(=O)[C@H](Cc2ccc(O)cc2)NC1=O

50% inhibition concentration, Regnase-1 phosphorylation by TBK1 (AlphaScreen) [1]: 12.7 µM | 50% inhibition concentration, Regnase-1 phosphorylation by TBK1 (AlphaScreen) [2]: 22.5 µM | 50% inhibition concentration, Regnase-1 phosphorylation by TBK1 (AlphaScreen) [3]: 19.6 µM | 50% inhibition concentration, Regnase-1 phosphorylation by IKKβ (AlphaScreen) [4]: 6.8 µM | 50% inhibition concentration, Regnase-1 phosphorylation by IKKβ (AlphaScreen) [5]: 27 µM | 50% inhibition concentration, Regnase-1 phosphorylation by IKKβ (AlphaScreen) [6]: 20.7 µM
B2: PP12 (peptide)
peptide: XRYAVYQWIYPD
HELM: PEPTIDE1{[meA].R.Y.A.V.Y.Q.W.I.Y.P.D.[C1CCN([*:1])C1]}$PEPTIDE1,PEPTIDE1,1:R1-12:R3$$$V2.0
SMILES: CC[C@H](C)[C@@H]1NC(=O)[C@H](Cc2c[nH]c3ccccc23)NC(=O)[C@H](CCC(N)=O)NC(=O)[C@H](Cc2ccc(O)cc2)NC(=O)[C@H](C(C)C)NC(=O)[C@H](C)NC(=O)[C@H](Cc2ccc(O)cc2)NC(=O)[C@H](CCCNC(=N)N)NC(=O)[C@H](C)N(C)C(=O)C[C@@H](C(=O)N2CCCC2)NC(=O)[C@@H]2CCCN2C(=O)[C@H](Cc2ccc(O)cc2)NC1=O

50% inhibition concentration, Regnase-1 phosphorylation by TBK1 (AlphaScreen) [1]: 8.4 µM | 50% inhibition concentration, Regnase-1 phosphorylation by TBK1 (AlphaScreen) [2]: 17.7 µM | 50% inhibition concentration, Regnase-1 phosphorylation by TBK1 (AlphaScreen) [3]: 18 µM | 50% inhibition concentration, Regnase-1 phosphorylation by IKKβ (AlphaScreen) [4]: 3.6 µM | 50% inhibition concentration, Regnase-1 phosphorylation by IKKβ (AlphaScreen) [5]: 43.2 µM | 50% inhibition concentration, Regnase-1 phosphorylation by IKKβ (AlphaScreen) [6]: 23.2 µM
B5: PP13 (peptide)
peptide: XRFRQWKWVYPD
HELM: PEPTIDE1{[meA].R.F.R.Q.W.K.W.V.Y.P.D.[C1CCN([*:1])C1]}$PEPTIDE1,PEPTIDE1,1:R1-12:R3$$$V2.0
SMILES: CC(C)[C@@H]1NC(=O)[C@H](Cc2c[nH]c3ccccc23)NC(=O)[C@H](CCCCN)NC(=O)[C@H](Cc2c[nH]c3ccccc23)NC(=O)[C@H](CCC(N)=O)NC(=O)[C@H](CCCNC(=N)N)NC(=O)[C@H](Cc2ccccc2)NC(=O)[C@H](CCCNC(=N)N)NC(=O)[C@H](C)N(C)C(=O)C[C@@H](C(=O)N2CCCC2)NC(=O)[C@@H]2CCCN2C(=O)[C@H](Cc2ccc(O)cc2)NC1=O
